Test results as given in publication doi:10.1101/2024.04.19.590371 (bioRxiv, 2024).

B1: GST-Metaxin (cytosolic domain, aa 1-191) (domain or fragment, Arabidopsis thaliana, UniProt O64471 1-191, looked up)
chain: MEGDQETNVYTLVARKPSFDLPTACPNCLPAYIYLKLAQLPFELAFNSTFPDSDELPYFESDTYVAYNNEDGGVIEKLKKDGIVNLDSQLQSLSDYLSLKALIVSWLEEALTYEIWVGTEGISTSKIYYSDLPWVISKVLFYKQTYLAKNRLGITKENAEQREKQIYKRASEAYEALSTRLGEQKFLFEDR
B2: GST-Tom9.2 (cytosolic domain, aa 1-53) (domain or fragment, Arabidopsis thaliana, UniProt Q9FNC9 1-53, looked up)
chain: MAAKRIGAGKSGGGDPNILARISNSEIVSQGRRAAGDAVEVSKKLLRSTGKAA
B3: GST-OM64 (cytosolic domain, aa 488-586) (domain or fragment, Arabidopsis thaliana, UniProt F4KCL7 488-586, looked up)
chain: SEVMKEKGNAAYKGKQWNKAVNFYTEAIKLNGANATYYCNRAAAFLELCCFQQAEQDCTKAMLIDKKNVKAYLRRGTARESLVRYKEAAADFRHALVLE

What was measured:
His+SUMO-atDjA1 = molecular target: T1, His+SUMO-atDjA1 (Arabidopsis thaliana, UniProt Q94AW8 1-420); assay: pull-down
T1 sequence (looked up): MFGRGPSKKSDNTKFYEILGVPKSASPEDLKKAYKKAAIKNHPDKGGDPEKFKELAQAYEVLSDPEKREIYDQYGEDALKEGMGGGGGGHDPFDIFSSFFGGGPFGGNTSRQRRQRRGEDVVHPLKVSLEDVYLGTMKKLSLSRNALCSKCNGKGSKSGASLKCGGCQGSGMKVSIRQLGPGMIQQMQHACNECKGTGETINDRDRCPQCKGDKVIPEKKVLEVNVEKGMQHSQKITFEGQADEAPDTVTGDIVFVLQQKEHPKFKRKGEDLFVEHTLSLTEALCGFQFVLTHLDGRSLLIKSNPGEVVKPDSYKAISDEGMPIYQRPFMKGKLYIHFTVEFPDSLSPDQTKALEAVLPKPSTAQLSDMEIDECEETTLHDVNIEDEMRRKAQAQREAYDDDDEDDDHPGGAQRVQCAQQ

His+SUMO-atDjA2 = molecular target: T2, His+SUMO-atDjA2 (Arabidopsis thaliana, UniProt P42825 1-419); assay: pull-down
T2 sequence (looked up): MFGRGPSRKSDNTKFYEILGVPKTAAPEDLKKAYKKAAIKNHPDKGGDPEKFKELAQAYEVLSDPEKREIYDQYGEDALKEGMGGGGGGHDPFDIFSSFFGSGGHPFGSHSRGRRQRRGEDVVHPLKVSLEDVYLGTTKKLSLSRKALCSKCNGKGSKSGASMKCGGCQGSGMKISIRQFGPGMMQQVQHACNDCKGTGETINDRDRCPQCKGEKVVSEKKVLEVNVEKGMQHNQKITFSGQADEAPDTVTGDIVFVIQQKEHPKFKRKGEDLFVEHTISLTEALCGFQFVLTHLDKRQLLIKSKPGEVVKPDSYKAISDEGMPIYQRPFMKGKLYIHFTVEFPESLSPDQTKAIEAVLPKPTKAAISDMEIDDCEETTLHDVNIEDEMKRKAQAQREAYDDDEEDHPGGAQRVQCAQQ

| Binder | binding result (His+SUMO-atDjA1) | binding result (His+SUMO-atDjA2) |
| --- | --- | --- |
| B1 | binds | binds |
| B2 | binds | – |
| B3 | – | binds |
